Test [1] addresses T1, Activated human plasma kallikrein (Enzyme Research Laboratories, HPKa 1303) (human, UniProt P03952 20-638). Kind of test: cell-based or functional assay.
Test [2] deals with T1, Activated human plasma kallikrein …. Kind of test: cell-based or functional assay. This is another data set of the same source.

Read-outs that look alike come from different tables or passages of the source. Numbered stars: 1 amine (or outer) side, 2 acyl side, 3 side chain; on linkers, the order of the positions; unused ones are H or OH. Bridge positions count the residues as written; N and C are the ends. Square brackets hold non-standard residues; d marks the D form. Ends that are not written are not given here. * marks the point of attachment. mXylyl = xylyl linker from dibromoxylene joining the two cysteines; Trp(7-aza) = N[C@@H](Cc1c[nH]c2ncccc12)C(=O)O; des‑NH2 = missing amino-terminal amine group; Gly(octyl) = CCCCCCCC[C@H](N)C(=O)O; Gly(cPent) = N[C@H](C(=O)O)C1CCCC1; pXylylene = c1cc(C[*:2])ccc1C[*:1]; Gly(cPr) = N[C@H](C(=O)O)C1CC1; dPhg = N[C@@H](C(=O)O)c1ccccc1; Chg = N[C@H](C(=O)O)C1CCCCC1; Phg = N[C@H](C(=O)O)c1ccccc1; Tle = CC(C)(C)[C@H](N)C(=O)O; Tranexamic = tranexamic acid; NMeV = CN[C@H](C(=O)O)C(C)C; oXylyl = ortho-xylyl linker; NMeC = CN[C@@H](CS)C(=O)O; NMeS = CN[C@@H](CO)C(=O)O; azaTrp = not defined here; Heptanoyl = CCCCCCC(=O)*; Nva = CCC[C@H](N)C(=O)O; Thp = NC1(C(=O)O)CCOCC1; Ac4c = NC1(C(=O)O)CCC1; Ac3c = NC1(C(=O)O)CC1; Aib = CC(C)(N)C(=O)O; Mpa = O=C(O)CCS Bounds are passed on as bounds.

T1 sequence (P03952 20-638 limits assumed): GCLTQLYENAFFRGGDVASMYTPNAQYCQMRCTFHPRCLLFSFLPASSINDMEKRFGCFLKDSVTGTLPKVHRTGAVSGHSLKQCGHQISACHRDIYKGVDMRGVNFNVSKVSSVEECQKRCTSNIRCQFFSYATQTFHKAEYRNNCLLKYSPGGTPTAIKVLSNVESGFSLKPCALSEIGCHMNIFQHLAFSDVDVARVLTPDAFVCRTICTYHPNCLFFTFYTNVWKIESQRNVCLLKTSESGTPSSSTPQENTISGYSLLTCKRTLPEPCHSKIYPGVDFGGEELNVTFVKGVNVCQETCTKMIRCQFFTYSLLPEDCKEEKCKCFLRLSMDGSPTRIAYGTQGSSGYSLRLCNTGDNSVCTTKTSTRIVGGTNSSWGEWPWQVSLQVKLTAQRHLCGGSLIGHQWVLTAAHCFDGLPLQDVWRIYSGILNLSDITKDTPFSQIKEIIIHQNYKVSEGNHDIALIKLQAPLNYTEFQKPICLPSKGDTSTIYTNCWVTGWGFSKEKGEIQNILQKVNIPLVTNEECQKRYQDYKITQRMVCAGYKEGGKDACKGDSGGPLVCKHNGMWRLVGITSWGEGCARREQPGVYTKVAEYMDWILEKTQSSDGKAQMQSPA

As for MCES[Gly(cPent)]CRV-NH2 (linker 2-6 via mXylyl) [R2077], the “Avg. IC50” value in test [1] was 19.7 nM.
On to {des‑NH2}-C[Aib]A[Phg]CR[Tle]LRYSE-NH2 (linker 1-5 via mXylyl) [R2099], for which the “Avg. IC50” value in test [1] came to 0.1 nM.
On to {des‑NH2}-C[Ac4c]A[dPhg]CR[Tle]-NH2 (linker 1-5 via mXylyl) [R2096], for which the “Avg. IC50” value in test [1] worked out at 748 nM.
Take {des‑NH2}-C[Thp]A[Chg]CR[Tle]-NH2 (linker 1-5 via mXylyl) [R2100]: the “Avg. IC50” value in test [1] is 1.5 nM.

B1: R2070 (peptide)
peptide: Ac-CAS[Phg]CR[Gly(cPr)]-NH2
modifications: linker 1-5 via mXylyl; not fully specified (residue 2); printed as [mXylyl(1,5)]Ac-C-a-S-Phg-CR-Cppg-NH2
B1: the “Avg. IC50” value in test [1] was 118 nM.
Consider [Mpa][code a]A[Phg]CR[Tle]-NH2 (linker 1-5 via mXylyl) [R2079], for which, in test [1], the “Avg. IC50” value came to 17.8 nM.
In the case of MCESICRE-NH2 (linker 2-6 via mXylyl) [R2087], the “Avg. IC50” value in test [1] is above 16600 nM.

B2: R2066 (peptide)
peptide: Heptanoyl-CAS[dPhg]CR[Tle]-NH2
modifications: linker 1-5 via mXylyl; not fully specified (residue 2); printed as [mXylyl(1,5)]Heptanoyl-C-a-S-(D)Phg-C-R-Tbg-NH2
Consider B2, for which the “Avg. IC50” value in test [1] worked out at 4370 nM.
The same measure, in the same setting: next, [Mpa][code a]S[Chg]CR[Tle]-NH2 (linker 1-5 via mXylyl) [R2082]: 25.8 nM.

B3: R2071 (peptide)
peptide: Ac-CAS[Phg]CR[Chg]-NH2
modifications: linker 1-5 via mXylyl; not fully specified (residue 2); printed as [mXylyl(1,5)]Ac-C-a-S-Phg-CR-Chg-NH2
On to B3, for which the “Avg. IC50” value in test [1] amounted to 1920 nM.
Regarding {des‑NH2}-C[Aib]A[Phg]CR[Tle]-NH2 (linker 1-5 via mXylyl) [R2078], in test [1], the “Avg. IC50” value came to 2.8 nM.
As to {des‑NH2}-C[Thp]A[Phg]CR[Tle]-NH2 (linker 1-5 via mXylyl) [R2095], in test [1], the “Avg. IC50” value came out at 1.6 nM.

B4: R2068 (peptide)
peptide: Heptanoyl-CA[NMeS][Phg]CR[Tle]-NH2
modifications: linker 1-5 via mXylyl; not fully specified (residue 2); printed as [mXylyl(1,5)]Heptanoyl-C-a-nMeS-Phg-C-R-Tbg-NH2
As for B4, the “Avg. IC50” value in test [1] was 26.8 nM.
Turning to {des‑NH2}-C[Ac3c]A[Phg]CR[Tle]-NH2 (linker 1-5 via mXylyl) [R2093], the “Avg. IC50” value in test [1] worked out at 10.3 nM.
Turning to {des‑NH2}-C[Ac3c]A[dPhg]CR[Tle]-NH2 (linker 1-5 via mXylyl) [R2092], the “Avg. IC50” value in test [1] came to 3960 nM.
CESICRV-NH2 (linker 1-5 via mXylyl) [R2085]: in test [1], the “Avg. IC50” value is 21.9 nM.
For the molecule {des‑NH2}-C[Thp]A[Chg]C[Trp(7-aza)][Tle]-NH2 (linker 1-5 via mXylyl) [R2147], the “Avg. IC50” value in test [2] is above 2190 nM.

B5: R2081 (peptide)
peptide: {des‑NH2}-C[Tranexamic][dPhg]CR[Tle]-NH2
modifications: linker 1-4 via mXylyl (inferred); not fully specified; printed as [mXylyl(1,5)](des-NH2)C-Tranexamic-(D)Phg-CR-Tbg-NH2
For B5, in test [1], the “Avg. IC50” value was above 10000 nM.
On the same count and under the same terms, next, {des‑NH2}-C[Aib]A[Chg]CR[Tle]-NH2 (linker 1-5 via mXylyl) [R2091]: 3.2 nM.

B6: R2073 (peptide)
peptide: {des‑NH2}-C[Gly(octyl)]S[Phg]CR[Tle]-NH2
modifications: linker 1-5 via mXylyl; not fully specified (residue 1); printed as [mXylyl(1,5)](des-NH2)C-OctG-S-Phg-CR-Tbg-NH2
As to B6, the “Avg. IC50” value in test [1] amounted to 18.6 nM.

B7: R2069 (peptide)
peptide: Heptanoyl-CA[NMeS][dPhg]CR[Tle]-NH2
modifications: linker 1-5 via mXylyl; not fully specified (residue 2); printed as [mXylyl(1,5)]Heptanoyl-C-a-nMeS-(D)Phg-C-R-Tbg-NH2
Regarding B7, the “Avg. IC50” value in test [1] came to 903 nM.
Consider [Nva]CESICRV-NH2 (linker 2-6 via mXylyl) [R2009], for which the “Avg. IC50” value in test [1] worked out at 8.6 nM.

B8: R2084 (peptide)
peptide: {des‑NH2}-C[Phg]CR[Tle]-NH2
modifications: linker 1-3 via pXylylene; not fully specified (residue 1); printed as [pXylyl(1,5)](des-NH2)C-Phg-CR-Tbg-NH2
With B8, the “Avg. IC50” value in test [1] amounted to 1800 nM.

B9: R2090 (peptide)
peptide: {des‑NH2}-C[Tranexamic][Phg]CR[Tle]-NH2
modifications: linker 1-4 via mXylyl (inferred); not fully specified; printed as [mXylyl(1,5)](des-NH2)C-Tranexamic-Phg-CR-Tbg-NH2
On to B9, for which, in test [1], the “Avg. IC50” value came out at 1750 nM.
Consider MCESI[NMeC]RV-NH2 (linker 2-6 via mXylyl) [R2101], for which the “Avg. IC50” value in test [1] is 12700 nM.

B10: R2076 (peptide)
peptide: {des‑NH2}-CGA[Phg]CR[Tle]-NH2
modifications: linker 1-5 via mXylyl; not fully specified (residue 1); printed as [mXylyl(1,5)](des-NH2)C-GA-Phg-CR-Tbg-NH2
B10: in test [1], the “Avg. IC50” value came to 11.4 nM.

B11: R2067 (peptide)
peptide: Heptanoyl-CAS[Phg]CR[Tle]-NH2
modifications: linker 1-5 via mXylyl; not fully specified (residue 2); printed as [mXylyl(1,5)]Heptanoyl-C-a-S-Phg-C-R-Tbg-NH2
As to B11, the “Avg. IC50” value in test [1] is 19.1 nM.

B12: R2075 (peptide)
peptide: {des‑NH2}-CAA[Phg]CR[Tle]-NH2
modifications: linker 1-5 via mXylyl; not fully specified (residue 1); printed as [mXylyl(1,5)](des-NH2)C-AA-Phg-CR-Tbg-NH2
On to B12, for which the “Avg. IC50” value in test [1] was 2.6 nM.

B13: R2080 (peptide)
peptide: [Mpa][code a]S[Phg]C[azaTrp][Tle]-NH2
modifications: linker 1-5 via mXylyl; reading uncertain; also: printed as [mXylyl(1,5)](des-NH2)C-a-S-Phg-C-azaTrp-Tbg-NH2
Turning to B13, the “Avg. IC50” value in test [1] amounted to 13200 nM.
Same read-out and setting: next, MCESICR[NMeV]-NH2 (linker 2-6 via mXylyl) [R2074]: 11600 nM; {des‑NH2}-C[Thp]A[dPhg]CR[Tle]-NH2 (linker 1-5 via mXylyl) [R2094]: 46.9 nM.

B14: R2072 (peptide)
peptide: {des‑NH2}-CAAICRV-NH2
modifications: linker 1-5 via mXylyl; not fully specified (residue 1); printed as [mXylyl(1,5)](des-NH2)C-AAICRV-NH2
On to B14, for which, in test [1], the “Avg. IC50” value was determined as 13 nM.
Still for that read-out and setting: next, {des‑NH2}-C[Ac4c]A[Phg]CR[Tle]-NH2 (linker 1-5 via mXylyl) [R2097]: 2 nM; MCEYICRV-NH2 (linker 2-6 via mXylyl) [R2089]: 61.9 nM.
On the same count and under the same terms, the same measure for MCESICRELRYSE-NH2 (linker 2-6 via mXylyl) [R2086]: 8930 nM.
With MCESNCRV-NH2 (linker 2-6 via mXylyl) [R2088], in test [1], the “Avg. IC50” value stood at 2040 nM.

B15: R2083 (peptide)
peptide: {des‑NH2}-C[Phg]CR[Tle]-NH2
modifications: linker 1-3 via oXylyl; not fully specified (residue 1); printed as [oXylyl(1,5)](des-NH2)C-Phg-CR-Tbg-NH2
In the case of B15, the “Avg. IC50” value in test [1] was above 8900 nM.
In the case of Ac-MCESICRV-NH2 (linker 2-6 via mXylyl) [R2008], the “Avg. IC50” value in test [1] was determined as 10.2 nM.
{des‑NH2}-C[Aib]A[dPhg]CR[Tle]LRYSE-NH2 (linker 1-5 via mXylyl) [R2098]: in test [1], the “Avg. IC50” value was determined as 22.4 nM.

Values taken from patent US20150166606A1 (RA PHARMACEUTICALS, published 2015).
